Experimental data as given in PMC7105497.

Target: human EWI-2 wild type with FLAG-tag (FSEC assay) (human) (UniProt Q969P0)
Assay: SEC; fluorescence-detection size-exclusion chromatography (FSEC): GFP-tagged CD9 and FLAG-tagged EWI-2 co-expressed in HEK293T cells, solubilised in 1% digitonin, supernatant run on Superose 6 Increase in 10 mM HEPES pH 7.0, 150 mM NaCl, 0.1% digitonin; GFP fluorescence monitored

Sequence of UniProt Q969P0 (Q969P0 28-613): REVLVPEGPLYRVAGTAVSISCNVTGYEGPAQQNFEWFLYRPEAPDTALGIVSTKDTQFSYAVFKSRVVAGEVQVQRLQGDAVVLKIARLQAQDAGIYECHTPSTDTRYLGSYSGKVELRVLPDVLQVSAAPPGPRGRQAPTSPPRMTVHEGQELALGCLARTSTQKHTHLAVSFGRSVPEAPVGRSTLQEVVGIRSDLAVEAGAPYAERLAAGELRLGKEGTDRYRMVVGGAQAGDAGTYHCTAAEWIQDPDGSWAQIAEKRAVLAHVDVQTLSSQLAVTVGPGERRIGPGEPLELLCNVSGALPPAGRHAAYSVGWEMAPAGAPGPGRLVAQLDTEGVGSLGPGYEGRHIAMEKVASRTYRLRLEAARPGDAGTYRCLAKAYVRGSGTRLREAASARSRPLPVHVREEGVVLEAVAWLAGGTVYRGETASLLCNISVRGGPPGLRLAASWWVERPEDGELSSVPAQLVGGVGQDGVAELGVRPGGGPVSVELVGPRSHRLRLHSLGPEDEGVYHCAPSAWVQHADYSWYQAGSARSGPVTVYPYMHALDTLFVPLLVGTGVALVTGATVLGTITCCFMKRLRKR

stoichiometry N (EWI-2 per CD9): 2
Substance: CD9-CD53LEL (CD9 with its LEL region exchanged with that of CD53)
